# Columns and labels:
# [1] = target: ICAM-1 (endogenous, TNFalpha-induced) (UniProt P05362 P05362:28-532); assay: flow; TNFalpha-stimulated HMEC-1 cells, 37 C 30 min, yeast tRNA 200 ug/mL pre-treatment, n=3; conditions: tags: HMEC-1 cells stimulated with TNFalpha 48 h; label: 5'-Alexa Fluor 488
# Experimental: HMEC-1 cells were stimulated with TNFalpha for 48h to induce ICAM-1 expression.
# ICAM-1 [2] = target: T1, ICAM-1 (Homo sapiens, UniProt P05362 P05362:28-532); assay: flow; COS7-ICAM-1 cells, 37 C 30 min, yeast tRNA 200 ug/mL pre-treatment, n=6; conditions: tags: full-length human ICAM-1 cDNA (pCMV6-ICAM-1) transiently expressed in COS7 cells; label: 5'-Alexa Fluor 488
# ICAM-1 [3] = target: T1, ICAM-1; assay: RT-qPCR cell binding on COS7-ICAM-1, 37 C 15 min, yeast tRNA 200 ug/mL pre-treatment; conditions: tags: full-length human ICAM-1 cDNA (pCMV6-ICAM-1) transiently expressed in COS7 cells
# Experimental: The same experiment was carried out with the unrelated aptamer A10, as negative control (sequence disclosed in Lupold S. E. et al., Cancer Res. 2002, 62, 4029-4033). The binding was evaluated by RT-qPCR.
# ICAM-1 [4] = target: T1, ICAM-1; assay: RT-qPCR cell binding, 50 nM RNA, 37 C 15 min; conditions: tags: full-length human ICAM-1 cDNA (pCMV6-ICAM-1) transiently expressed in COS7 cells
# Experimental: To the aim of testing if the short aptamer 10.T (SEQ ID NO: 1) contained the active site of the original molecule 12c-10 (SEQ ID NO: 2) and preserved high binding and affinity to COS7-ICAM-1, binding assays were performed maintaining the same conditions used for long aptamers screening.
# The RNA sequence 10.T was incubated at 50 nM, as final concentration, for 15 minutes at 37° C. on COS7-WT and COS7-ICAM-1. The ratio comparing binding values of COS7-ICAM-1 over COS7-WT (fold change) is reported in FIG. 5, showing a value of 2.2.
# ICAM-1 [5] = target: T1, ICAM-1; assay: RT-qPCR cell binding, 50 nM RNA, 37 C 15 min, yeast tRNA pre-treatment; conditions: tags: full-length human ICAM-1 cDNA (pCMV6-ICAM-1) transiently expressed in COS7 cells
# Experimental: Following the analysis of the enriched sequences, binding assays by RT-qPCR were performed in order to select the sequences able to bind COS7-ICAM-1. Essentially, DNA sequences were amplified and transcribed. Then, RNA sequences were incubated at 50 nM, as final concentration, for 15 minutes at 37° C., after pre-treatment with yeast tRNA 200 μg/mL, on COS7-WT and COS7-ICAM-1. Following incubation, cells were washed 3 times with PBS and recovered in TRIsure reagent. An RNA sequence used as reference control was spotted in each point for the normalization. A fold ratio was calculated comparing binding values of COS7-ICAM-1 over COS7-WT. Twelve sequences representatives of couples or groups of identical sequences were screened. Those with higher fold ratio were chosen for further analysis performing experimental triplicates.
# T1 sequence (P05362 28-532, one chain of several): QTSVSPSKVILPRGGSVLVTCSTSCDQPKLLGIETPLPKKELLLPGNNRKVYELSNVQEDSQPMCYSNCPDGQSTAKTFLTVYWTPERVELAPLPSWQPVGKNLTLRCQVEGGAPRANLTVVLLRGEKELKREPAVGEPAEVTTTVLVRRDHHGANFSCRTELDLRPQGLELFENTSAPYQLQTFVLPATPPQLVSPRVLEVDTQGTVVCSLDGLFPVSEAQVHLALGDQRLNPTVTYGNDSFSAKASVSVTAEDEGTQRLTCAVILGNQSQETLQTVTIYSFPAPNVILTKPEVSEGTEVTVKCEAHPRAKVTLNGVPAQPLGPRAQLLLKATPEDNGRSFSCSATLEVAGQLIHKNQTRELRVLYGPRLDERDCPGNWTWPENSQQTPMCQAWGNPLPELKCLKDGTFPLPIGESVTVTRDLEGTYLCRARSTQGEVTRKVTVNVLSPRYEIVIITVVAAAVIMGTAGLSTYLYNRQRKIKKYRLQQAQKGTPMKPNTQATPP
# ICAM-1 (endogenous, TNFalpha-induced), sequence (P05362 28-532, one chain of several): as above
binder,measurement,setting,value
"Alexa488-10.T (ssRNA, 2'-F pyrimidines; 5'-C12 amino linker) RNA: UCAUGAUACGUUGCGUGAGCAACUGCGGCGCUAAAGUUUGGUUGACUAGUACAUG",Kd,[1],106 nM
same,Kd,ICAM-1 [2],116 nM
"10.T (ssRNA, 2'-F pyrimidines) RNA: UCAUGAUACGUUGCGUGAGCAACUGCGGCGCUAAAGUUUGGUUGACUAGUACAUG",Kd,ICAM-1 [3],376 nM
same,binding signal,ICAM-1 [4],2.2 fold COS7-ICAM-1 over COS7-WT
"12c-10 (ssRNA, 2'-F pyrimidines) RNA: GGGAAGAGAAGGACAUAUGAUCAUGAUACGUUGCGUGAGCAACUGCGGCGCUAAAGUUUGGUUGACUAGUACAUGACCACUUGA",binding signal,ICAM-1 [5],3.13 fold COS7-ICAM-1 over COS7-WT
